From US20250304643A1 (BAINAN BIOTECH, published 2025) come the findings set out here.

Sequences and labels used below:
T1: human glucose-dependent insulinotropic polypeptide receptor (human, UniProt P48546 22-466)
T1 sequence (looked up): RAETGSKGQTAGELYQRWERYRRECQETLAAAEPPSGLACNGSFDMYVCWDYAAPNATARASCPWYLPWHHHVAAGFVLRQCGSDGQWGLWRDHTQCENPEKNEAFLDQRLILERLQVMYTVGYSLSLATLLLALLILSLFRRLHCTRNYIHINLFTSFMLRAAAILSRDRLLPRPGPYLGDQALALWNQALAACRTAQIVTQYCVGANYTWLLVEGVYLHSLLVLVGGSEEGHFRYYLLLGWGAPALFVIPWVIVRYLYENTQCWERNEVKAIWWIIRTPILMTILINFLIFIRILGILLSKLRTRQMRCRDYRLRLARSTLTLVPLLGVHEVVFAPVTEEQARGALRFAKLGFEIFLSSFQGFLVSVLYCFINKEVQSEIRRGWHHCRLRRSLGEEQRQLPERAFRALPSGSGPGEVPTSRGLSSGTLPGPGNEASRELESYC

T2: human glucagon-like peptide-2 receptor (human, UniProt O95838 1-553)
T2 sequence (looked up): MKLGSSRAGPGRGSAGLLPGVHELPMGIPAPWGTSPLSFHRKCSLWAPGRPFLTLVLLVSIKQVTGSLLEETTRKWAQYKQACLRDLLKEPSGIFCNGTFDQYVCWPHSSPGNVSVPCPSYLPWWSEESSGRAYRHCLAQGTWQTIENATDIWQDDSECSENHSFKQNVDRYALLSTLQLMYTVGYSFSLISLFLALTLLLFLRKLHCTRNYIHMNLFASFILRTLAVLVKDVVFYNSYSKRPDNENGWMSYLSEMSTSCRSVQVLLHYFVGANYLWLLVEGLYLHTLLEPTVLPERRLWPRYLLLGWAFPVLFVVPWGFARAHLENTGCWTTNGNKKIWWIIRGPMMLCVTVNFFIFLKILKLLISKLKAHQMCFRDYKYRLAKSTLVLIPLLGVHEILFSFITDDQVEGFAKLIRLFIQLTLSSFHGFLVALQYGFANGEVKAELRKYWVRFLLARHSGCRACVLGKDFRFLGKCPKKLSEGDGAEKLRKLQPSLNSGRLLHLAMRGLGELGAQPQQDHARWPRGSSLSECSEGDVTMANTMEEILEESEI

B1: Compound no. 33 (peptide)
peptide: H[Aib]DGTFISDYK([γGlu-Palmitoyl])T[Aib]LDALAARDFIEWLIQTKITK-OH
modifications: N-terminus assumed
SMILES: CCCCCCCCCCCCCCCC(=O)N[C@@H](CCC(=O)NCCCC[C@H](NC(=O)[C@H](Cc1ccc(O)cc1)NC(=O)[C@H](CC(=O)O)NC(=O)[C@H](CO)NC(=O)[C@@H](NC(=O)[C@H](Cc1ccccc1)NC(=O)[C@@H](NC(=O)CNC(=O)[C@H](CC(=O)O)NC(=O)C(C)(C)NC(=O)[C@@H](N)Cc1c[nH]cn1)[C@@H](C)O)[C@@H](C)CC)C(=O)N[C@H](C(=O)NC(C)(C)C(=O)N[C@@H](CC(C)C)C(=O)N[C@@H](CC(=O)O)C(=O)N[C@@H](C)C(=O)N[C@@H](CC(C)C)C(=O)N[C@@H](C)C(=O)N[C@@H](C)C(=O)N[C@@H](CCCNC(=N)N)C(=O)N[C@@H](CC(=O)O)C(=O)N[C@@H](Cc1ccccc1)C(=O)N[C@H](C(=O)N[C@@H](CCC(=O)O)C(=O)N[C@@H](Cc1c[nH]c2ccccc12)C(=O)N[C@@H](CC(C)C)C(=O)N[C@H](C(=O)N[C@@H](CCC(N)=O)C(=O)N[C@H](C(=O)N[C@@H](CCCCN)C(=O)N[C@H](C(=O)N[C@H](C(=O)N[C@@H](CCCCN)C(=O)O)[C@@H](C)O)[C@@H](C)CC)[C@@H](C)O)[C@@H](C)CC)[C@@H](C)CC)[C@@H](C)O)C(=O)O
B2: Compound no. 34 (peptide)
peptide: Ac-H[Aib]DGTFISDYK([γGlu-Palmitoyl])T[Aib]LDNLAARDFINWLIQTKITK-OH
SMILES: CCCCCCCCCCCCCCCC(=O)N[C@@H](CCC(=O)NCCCC[C@H](NC(=O)[C@H](Cc1ccc(O)cc1)NC(=O)[C@H](CC(=O)O)NC(=O)[C@H](CO)NC(=O)[C@@H](NC(=O)[C@H](Cc1ccccc1)NC(=O)[C@@H](NC(=O)CNC(=O)[C@H](CC(=O)O)NC(=O)C(C)(C)NC(=O)[C@H](Cc1c[nH]cn1)NC(C)=O)[C@@H](C)O)[C@@H](C)CC)C(=O)N[C@H](C(=O)NC(C)(C)C(=O)N[C@@H](CC(C)C)C(=O)N[C@@H](CC(=O)O)C(=O)N[C@@H](CC(N)=O)C(=O)N[C@@H](CC(C)C)C(=O)N[C@@H](C)C(=O)N[C@@H](C)C(=O)N[C@@H](CCCNC(=N)N)C(=O)N[C@@H](CC(=O)O)C(=O)N[C@@H](Cc1ccccc1)C(=O)N[C@H](C(=O)N[C@@H](CC(N)=O)C(=O)N[C@@H](Cc1c[nH]c2ccccc12)C(=O)N[C@@H](CC(C)C)C(=O)N[C@H](C(=O)N[C@@H](CCC(N)=O)C(=O)N[C@H](C(=O)N[C@@H](CCCCN)C(=O)N[C@H](C(=O)N[C@H](C(=O)N[C@@H](CCCCN)C(=O)O)[C@@H](C)O)[C@@H](C)CC)[C@@H](C)O)[C@@H](C)CC)[C@@H](C)CC)[C@@H](C)O)C(=O)O
B3: Compound no. 44 (peptide)
peptide: Decanoyl-H[Aib]DGTFISDYST[Aib]LDNLAARDFINWLIQTKITK-OH
SMILES: CCCCCCCCCC(=O)N[C@@H](Cc1c[nH]cn1)C(=O)NC(C)(C)C(=O)N[C@@H](CC(=O)O)C(=O)NCC(=O)N[C@H](C(=O)N[C@@H](Cc1ccccc1)C(=O)N[C@H](C(=O)N[C@@H](CO)C(=O)N[C@@H](CC(=O)O)C(=O)N[C@@H](Cc1ccc(O)cc1)C(=O)N[C@@H](CO)C(=O)N[C@H](C(=O)NC(C)(C)C(=O)N[C@@H](CC(C)C)C(=O)N[C@@H](CC(=O)O)C(=O)N[C@@H](CC(N)=O)C(=O)N[C@@H](CC(C)C)C(=O)N[C@@H](C)C(=O)N[C@@H](C)C(=O)N[C@@H](CCCNC(=N)N)C(=O)N[C@@H](CC(=O)O)C(=O)N[C@@H](Cc1ccccc1)C(=O)N[C@H](C(=O)N[C@@H](CC(N)=O)C(=O)N[C@@H](Cc1c[nH]c2ccccc12)C(=O)N[C@@H](CC(C)C)C(=O)N[C@H](C(=O)N[C@@H](CCC(N)=O)C(=O)N[C@H](C(=O)N[C@@H](CCCCN)C(=O)N[C@H](C(=O)N[C@H](C(=O)N[C@@H](CCCCN)C(=O)O)[C@@H](C)O)[C@@H](C)CC)[C@@H](C)O)[C@@H](C)CC)[C@@H](C)CC)[C@@H](C)O)[C@@H](C)CC)[C@@H](C)O
B4: Compound no. 5 (peptide)
peptide: Palmitoyl-H[Aib]DGTFISDYST[Aib]LDNLAARDFINWLIQTKITK-OH
SMILES: CCCCCCCCCCCCCCCC(=O)N[C@@H](Cc1c[nH]cn1)C(=O)NC(C)(C)C(=O)N[C@@H](CC(=O)O)C(=O)NCC(=O)N[C@H](C(=O)N[C@@H](Cc1ccccc1)C(=O)N[C@H](C(=O)N[C@@H](CO)C(=O)N[C@@H](CC(=O)O)C(=O)N[C@@H](Cc1ccc(O)cc1)C(=O)N[C@@H](CO)C(=O)N[C@H](C(=O)NC(C)(C)C(=O)N[C@@H](CC(C)C)C(=O)N[C@@H](CC(=O)O)C(=O)N[C@@H](CC(N)=O)C(=O)N[C@@H](CC(C)C)C(=O)N[C@@H](C)C(=O)N[C@@H](C)C(=O)N[C@@H](CCCNC(=N)N)C(=O)N[C@@H](CC(=O)O)C(=O)N[C@@H](Cc1ccccc1)C(=O)N[C@H](C(=O)N[C@@H](CC(N)=O)C(=O)N[C@@H](Cc1c[nH]c2ccccc12)C(=O)N[C@@H](CC(C)C)C(=O)N[C@H](C(=O)N[C@@H](CCC(N)=O)C(=O)N[C@H](C(=O)N[C@@H](CCCCN)C(=O)N[C@H](C(=O)N[C@H](C(=O)N[C@@H](CCCCN)C(=O)O)[C@@H](C)O)[C@@H](C)CC)[C@@H](C)O)[C@@H](C)CC)[C@@H](C)CC)[C@@H](C)O)[C@@H](C)CC)[C@@H](C)O

*1 amine or outer side, *2 acyl side, *3 side chain or, on linkers, in order; H or OH if unused. Where no end group is shown, it is not given here. Side-chain parts run from the residue outwards. [ ]: non-standard residue; d: D form. The star is where a group is joined. C16 diacid = O=C(O)CCCCCCCCCCCCCCC(=O)*; γGlu = O=C(O)[C@H](CCC(=O)[*:2])N[*:1]; Palmitoyl = CCCCCCCCCCCCCCCC(=O)*; Decanoyl = CCCCCCCCCC(=O)*; Aib = CC(C)(N)C(=O)O

The first assay addresses T1, human glucose-dependent insulinotropic …. As to the kind of experiment: cell-based or functional assay.
As to B1, the “Efficacy GIPR” value is 101%.
For the molecule {C16 diacid}-H[Aib]EGTFISDYST[Aib]LDALAARDFINWLIQTKITKNDWKHNITQ-OH [Compound no. 41], the “Efficacy GIPR” value came to 91%.
Still for that read-out and setting: the same measure for Ac-H[Aib]DGTFISDYK([γGlu-Palmitoyl])T[Aib]LDNLAARDFINWLIQTKITKNDWKHNITQ-OH [Compound no. 38]: 81%; for Palmitoyl-HADGTFISDYSTILDNLAARDFINWLLAQKITK [Compound no. 46]: 98%.
As to B2, the “EC50 (nM) GIPR” value amounted to 10 nM and the “Efficacy GIPR” value was determined as 75%.
On the same counts, the results for {C16 diacid}-H[Aib]DGTFISDYST[Aib]LDNLAARDFINWLIQTKITKNDWKHNITQ-OH [Compound no. 40] are 1 nM and 94%.
Turning to {C16 diacid}-HADGTFISDYST[Aib]LDNLAARDFINWLIQTKITKNDWKHNITQ [Compound no. 39], the “Efficacy GIPR” value was 99%.
Still for that read-out and setting: the same measure for {C16 diacid}-H[Aib]DGTFISDYST[Aib]LDNLAAKDFINWLIQTKITKNDWKHNITQ-OH [Compound no. 42]: 91%; for Palmitoyl-HADGTFISDYSTILDNLAARDFINWLIQTKIT [Compound no. 2]: 80%; for B3: 110%.

Another assay has as its target T2, human glucagon-like peptide-2 receptor. As to the kind of experiment: cell-based or functional assay.
Turning to B1, the “Efficacy GLP-2R” value was determined as 97%.
Regarding {C16 diacid}-H[Aib]EGTFISDYST[Aib]LDALAARDFINWLIQTKITKNDWKHNITQ-OH [Compound no. 41], the “Efficacy GLP-2R” value worked out at 74% and the “logEC50 GLP-2R” value worked out at 8.8.
As for Ac-H[Aib]DGTFISDYK([γGlu-Palmitoyl])T[Aib]LDNLAARDFINWLIQTKITKNDWKHNITQ-OH [Compound no. 38], the “Efficacy GLP-2R” value amounted to 89%.
Same read-out and setting: with Palmitoyl-HADGTFISDYSTILDNLAARDFINWLLAQKITK [Compound no. 46] the figure was 82%; with B2, 103%.
In the case of {C16 diacid}-H[Aib]DGTFISDYST[Aib]LDNLAARDFINWLIQTKITKNDWKHNITQ-OH [Compound no. 40], the “Efficacy GLP-2R” value was 96% and the “logEC50 GLP-2R” value worked out at 9.
As to {C16 diacid}-HADGTFISDYST[Aib]LDNLAARDFINWLIQTKITKNDWKHNITQ [Compound no. 39], the “EC50 (nM) GLP-2R” value was 1 nM, the “Efficacy GLP-2R” value amounted to 78% and the “logEC50 GLP-2R” value was found to be 9.
On to {C16 diacid}-H[Aib]DGTFISDYST[Aib]LDNLAAKDFINWLIQTKITKNDWKHNITQ-OH [Compound no. 42], for which the “Efficacy GLP-2R” value was 93%.
Same read-out and setting: with Palmitoyl-HADGTFISDYSTILDNLAARDFINWLIQTKIT [Compound no. 2] the figure was 59%.
Turning to B3, the “Efficacy GLP-2R” value is 100%.

For a further assay, the target named is human GLP-1R (GLP-1 receptor) (human, UniProt P43220 24-463). Nature of the assay: cell-based or functional assay.
Take B4: the “cAMP assay: Efficacy GLP-1R” value worked out at 6%.
